The target in experiment [1] is human lactoferrin (human).
Experiment [2] concerns the target human lactoferrin (human). Put plainly: SPR. Background: SPR reads the build-up and loss of mass on a sensor chip optically.
Experiment [3] has as its target human lactoferrin (human). The experiment can be described thus: native gel or EMSA. Background: A gel shift assay detects complexes by their altered migration in electrophoresis.

Several values for one entry are separate records, joined by “and”; a condition that tells them apart may be missing. Equal values may be shown once.

What is called Kd is the constant that tells how readily two partners part at equilibrium. High values mean weaker binding, low ones tighter binding. As to “SARS-CoV-2 spike protein (S-protein), ancestral Wuhan-like variant (from UniProt P0DTC2 14-1213) (natural protein)”, the percent of input bound in experiment [1] was 60%. This substance yielded a Kd in experiment [2] of 0.00432 µM.
In general, stoichiometry N refers to a count of units in the complex or per binding partner. Broadly, the koff is the rate constant with which the complex falls apart. Lower therefore signals slow dissociation. As usually defined, the kon is the second-order rate constant of association. A higher kon goes with fast association. “receptor-binding domain of the SARS-CoV-2 S-protein, ancestral Wuhan-like variant (from UniProt P0DTC2) (domain or fragment)” came in with a percent of input bound in experiment [1] of 30%. Also, in experiment [3], the stoichiometry N worked out at 1. In experiment [2], the Kd was 1.26 µM and 1.31 µM; the koff came to 0.308 s⁻¹; the kon was determined as 245000 M⁻¹ s⁻¹.

These data come from article PMC11357225.
